Assay results published in US20260092097A1 (ALTOR BIOSCIENCE, published 2026).
One block for each binder: values may come before it.

Molecular target: T1, IL-15 receptor (IL-15RβγC) on 32Dβ cells (human; mouse, UniProt P14784 27-551; P34902 23-369)
T1 sequence (looked up) 1: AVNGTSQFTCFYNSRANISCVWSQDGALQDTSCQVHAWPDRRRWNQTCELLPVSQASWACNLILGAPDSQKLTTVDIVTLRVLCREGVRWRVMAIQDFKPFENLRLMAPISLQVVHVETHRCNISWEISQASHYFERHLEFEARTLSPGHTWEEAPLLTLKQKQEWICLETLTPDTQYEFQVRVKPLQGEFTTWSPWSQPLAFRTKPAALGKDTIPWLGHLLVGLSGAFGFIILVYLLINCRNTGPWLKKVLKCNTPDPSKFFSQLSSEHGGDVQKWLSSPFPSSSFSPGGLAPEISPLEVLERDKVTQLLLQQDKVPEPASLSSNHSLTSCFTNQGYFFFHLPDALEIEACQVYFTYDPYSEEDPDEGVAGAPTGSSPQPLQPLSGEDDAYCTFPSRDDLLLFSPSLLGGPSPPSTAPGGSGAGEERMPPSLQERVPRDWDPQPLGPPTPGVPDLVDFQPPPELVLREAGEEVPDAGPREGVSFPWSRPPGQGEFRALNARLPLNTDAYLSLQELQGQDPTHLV
T1 sequence (looked up) 2: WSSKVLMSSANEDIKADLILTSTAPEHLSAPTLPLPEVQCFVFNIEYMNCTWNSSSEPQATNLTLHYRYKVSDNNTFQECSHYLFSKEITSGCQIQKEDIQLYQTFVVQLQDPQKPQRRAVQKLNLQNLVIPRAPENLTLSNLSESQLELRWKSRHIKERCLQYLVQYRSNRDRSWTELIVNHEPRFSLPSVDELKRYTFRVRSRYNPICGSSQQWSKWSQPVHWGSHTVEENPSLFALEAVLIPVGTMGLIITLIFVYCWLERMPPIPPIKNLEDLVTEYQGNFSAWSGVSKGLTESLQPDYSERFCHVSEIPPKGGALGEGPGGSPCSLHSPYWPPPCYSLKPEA
Test: cell-based or functional assay

IL-15 dependent 32Dβ cell proliferation, EC50: 15.8 pM
B1: in vitro assembled IL-15N72D:IL-15RαSu/Fc complex (IL-15N72D:IL-15RαSu/Fc IVA) (Fc fusion)
chain 1: PELLGG
chain 2: PEAAGG

IL-15 dependent 32Dβ cell proliferation, EC50: 15.6 pM
B2: IL-15N72D:IL-15RαSu/Fc complex (Alt-803) (Fc fusion)
chain 1: PELLGG
chain 2: PEAAGG
